Assay results reported in publication PMC4089488 (Acta Crystallographica Section D: Biological Crystallography, 2014).
Residue numbers refer to the chain shown, from its start. Names may count otherwise.

T1: human MST1 SARAH domain (residues 432–480) (human) (UniProt Q13043)
T1 sequence: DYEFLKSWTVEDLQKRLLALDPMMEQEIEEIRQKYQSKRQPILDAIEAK

B1: RASSF5 SARAH domain double mutant (E388A and K398A) (domain or fragment)
chain: EVEWDAFSIPELQNFLTILEKEAQDKIQQVQKAYDKFRQKLEEALRESQGKPG
B2: human RASSF5 SARAH domain (residues 366–418) (domain or fragment, UniProt Q8WWW0 366-418, looked up)
chain: B1 chain with A23E, A33K
B3: human MST1 SARAH domain (residues 432–480) (domain or fragment, UniProt Q13043 432-480, looked up)
chain: T1 sequence
notes: mammalian sterile 20-like kinase 1 (MST1, KRS-2), human, 487 residues, SARAH domain residues 432-480; A selenomethionine-labelled form (E. coli B834 (DE3)) was used for SAD phasing; also called KRS-2; hMST1; source: E. coli BL21, GST fusion protein, purified as described previously (Hwang et al., 2007)
B4: human MST2 SARAH domain (residues 436–484) (domain or fragment, UniProt Q13188 436-484, looked up)
chain: DFDFLKNLSLEELQMRLKALDPMMEREIEELRQRYTAKRQPILDAMDAK
notes: mammalian sterile 20-like kinase 2 (MST2, KRS-1), human, 491 residues, SARAH domain residues 436-484; Forms a homodimer (one homodimer in the asymmetric unit); also called KRS-1; hMST2; source: E. coli BL21, GST fusion protein, purified as described previously (Hwang et al., 2010)

Columns and labels:
[1] = target: T1, human MST1 SARAH domain (residues 432–480) (human)
[2] = target: B3; assay: cell-based or functional assay
[3] = target: B2; assay: crystal structure; MST1–RASSF5 SARAH heterodimer (domains mixed 1:2, heterodimer separated on Superdex 75 in 25 mM HEPES pH 7.0, 100 mM NaCl, 2 mM DTT); hanging drop, 20°C, 35% MPD, acetate pH 4.8; space group C222(1), one heterodimer in the asymmetric unit; SAD phasing with SeMet MST1; details: both partners purified
[4] = target: the molecule itself; assay: cell-based or functional assay
[5] = target: the molecule itself; assay: crystal structure; MST2 SARAH homodimer, 40 mg/ml; hanging drop, 20°C, 2.0 M NaCl, 8% PEG 6000; space group P4(1)2(1)2, one homodimer in the asymmetric unit; molecular replacement
[6] = target: B2; assay: NMR titration; MST2 SARAH homodimer titrated with the RASSF5 SARAH domain in solution (Supplementary Fig. S7); details: both partners purified

For B1, which transition concentration (C m) of urea, urea-induced denaturation of the double-mutant SARAH heterodimer followed by CD at 222 nm [1] is on record?
The transition concentration (C m) of urea, urea-induced denaturation of the double-mutant SARAH heterodimer followed by CD at 222 nm was 3.2 M.

With B2 as the binder, how does the “free energy of unfolding of the heterodimer, urea-induced denaturation followed by CD, two-state fit” value [2] read?
Its value is 4.8 kcal/mol.

Does B3 bind [3]?
Result: binds

And the “free energy of unfolding of the homodimer, urea-induced denaturation followed by CD, two-state fit” value [4]?
Its value is 2 kcal/mol.

What does the source list for B4?
binding result [5]: binds; binding result [6]: binds
